Data on 5 molecules can be found in patent publication US20200255501A1 (VIB VZW, published 2020).

B1: anti-Sap Nanobody707 (VHH)
VHH: QVQLVESGGGLVQAGGSLRLSCAASGSIFRINAMGWYRQASGKQRELVAAITSGGNTNYADSVKGRFTISRDNAKNTVYLQMNSLKPEDTAVYYCNADFGTGGRPYDYWGQGTQVTVSS
B2: anti-Sap Nanobody702 (VHH)
VHH: QVQLVESGGGLVQAGGSLRLSCAASGSIFRVNDMGWYRQAPGKQRELVAIIITGGSTNYADSVKGRFTISRDNAKNTVYLQMNSLRPEDTAVYYCNADFGTGPGRYDYWGQGTQVTVSS
B3: anti-Sap Nanobody683 (VHH)
VHH: QVQLVESGGGLVQAGGSLRLSCAASGSIFRINDMGWYRQAPGKQRELVAAITSGGSTNYADSVKGRFTISRDNAKKMVYLQMNSLKPEDTAVYYCHADFSTGWAPYDYWGQGTQVTVSS
B4: anti-Sap Nanobody704 (VHH)
VHH: QVQLVESGGGLVQPGGSLRLSCAASGFTFSNFAIAWVRQAPGKGLEWVSDINSGGTDTSYAAAVKGRFTISRDNAKNTLYLQMNNLKPEDTAVYYCAKSAQSYFHSTFDHRGQGTQVTVSS
B5: anti-Sap Nanobody688 (VHH)
VHH: QVQLVESGGGLVRAGGSLRLSCAASGSIFRINDMGWYRQAPGKQRELVAAITSGGSTNYADSVKGRFTISRDNAKNTVYLQMNSLKPEDTAVYYCNADFSTVRERRYDYWGQGTQVTVSS

The first test deals with T1, B. anthracis Sap S-Layer assembly domain (Sap^AD; residues 216-814), C-terminal His6 (Bacillus anthracis, UniProt P49051 216-814). The test can be described thus: isothermal titration calorimetry, […].
For B1, binding was characterised by a dissociation constant (Kd) of 103 nM.

For the molecule B2, the Kd worked out at 72.5 nM.

For B3, binding was put at a Kd of 35.8 nM.

B4 registered a Kd of 183 nM.

A further test addresses T1, B. anthracis Sap S-Layer assembly …. The test can be described thus: ITC, Nb titrated into fresh monomeric Sapc, 30 °C.
Take B5: binding was characterised by a dissociation constant (Kd) of 120 nM.

For the molecule B3, the Kd was found to be 35 nM.
